Data taken from patent US6824994B2, “Peptide ligands that mimic sensor kinases and inhibit response regulators” (priority 2000, dated 2004).
Entries after “also recorded” stand apart in the source; their conditions may differ.

Tests used:
[1] = target: T1, VanR˜P-PVanH complex (Enterococcus faecium, UniProt Q06239); assay: Gel shift analysis of VanR˜P binding to PVanH DNA; type: biochemical
T1 construct: GST (N, cleaved yes); made in house; host or cells: E. coli BL21 lambda DE3 (pGEX-2TK); phosphorylated with lithium acetyl phosphate
T1 sequence (Q06239 whole entry, one chain of several): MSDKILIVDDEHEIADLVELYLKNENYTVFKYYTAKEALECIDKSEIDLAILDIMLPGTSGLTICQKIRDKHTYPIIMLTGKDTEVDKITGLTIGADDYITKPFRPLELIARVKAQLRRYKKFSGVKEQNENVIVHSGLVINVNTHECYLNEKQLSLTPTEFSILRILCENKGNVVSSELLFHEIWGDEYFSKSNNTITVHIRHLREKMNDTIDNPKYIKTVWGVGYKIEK
Method: (§1) Amplification and 5′-End-Labeling of PVanH DNA. A 254 bp DNA fragment containing the PVanH promoter region (residues −191 to 63) was obtained by PCR as described by T. Holman et al., 33 Biochem. 4625-4631 (1994) using a boiled cell preparation of En. faecium A634 as the template source. Amplified PVanH promoter DNA was 5′-end-labeled with [γ-32 P]ATP (specific activity of […]) and phage T4 polynucleotide kinase. The reaction mixture was incubated for 30 minutes at 37° C., and unincorporated ATP was removed by centrifugal gel filtration (Sephadex G-50 spin column, Amersham Pharmacia Biotech).
Phosphorylation of VanR with Acetyl Phosphate. VanR was phosphorylated as described previously in T. Holman et al., 33 Biochem. 4625-4631 (1994). The reaction was performed in a total volume of 100 μL which contained 50 mM HEPES (pH 7.2), 5 mM MgCl2, 50 mM lithium acetyl phosphate, and 9 μM VanR. […]
Gel Shift Analysis of VanR ˜P Binding to PVanH DNA. VanR-PVanH complexes were quantified by gel shift analysis as described by T. Holman et al., 33 Biochem. 4625-4631 (1994). […]
(§2) To start the reaction, ^32P-labeled PVanH promoter probe DNA (0.65 ng in 1 μL) was added, and the reaction mixture was incubated on ice for 15 minutes. The resultant VanR˜P-PVanH complexes were analyzed by nondenaturing PAGE. […]

[2] = target: T2, phosphoryl transfer from P˜VanS to PhoB (Escherichia coli, UniProt P0AFJ5); assay: Phosphotransferase assay, phosphoryl transfer from P˜VanS to PhoB; type: biochemical; conditions: peptide at 1 mM
T2 construct: GST (N, cleaved yes); made in house; host or cells: E. coli BL21 lambda DE3 (pGEX-2TK)
T2 sequence (P0AFJ5 whole entry): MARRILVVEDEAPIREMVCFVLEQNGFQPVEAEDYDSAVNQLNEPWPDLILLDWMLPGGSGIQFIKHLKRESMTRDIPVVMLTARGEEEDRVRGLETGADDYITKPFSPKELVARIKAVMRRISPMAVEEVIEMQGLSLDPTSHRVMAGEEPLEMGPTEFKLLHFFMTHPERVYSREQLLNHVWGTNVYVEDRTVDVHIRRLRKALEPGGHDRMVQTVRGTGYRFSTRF
Method: Phosphotransferase Assay. VanSc-GST (4 pmol) was labeled for 60 minutes at room temperature in a 5 μL volume containing, 50 mM Tris-HCl (pH 7.4), 5 mM MgCl2, and 100 mM KCl. The reaction was initiated by addition of 1 μL of 200 μM [γ-^32P]ATP which contained 1 μCi. After 60 minutes, the 5 μL reaction mixture was added to a 15 μL reaction mixture containing 80 pmol of PhoB and 2.5 mM PMSF all in the same buffer, with the appropriate peptide at a final concentration of 1 mM. Reactions were stopped by the addition of 10 μL of SDS gel loading buffer, and the resultant mixture was fractionated by SDS-PAGE. Phosphoproteins were assessed autoradiographically with a phosphorimager, as previously described.

[3] = target: T3, VanR (Enterococcus faecium, UniProt Q06239); assay: Phage ELISA of phage-displayed peptides binding to immobilised VanR; conditions: cloned N-terminal regulatory domain of VanR
T3 construct: GST (N, cleaved yes); made in house; host or cells: E. coli BL21 lambda DE3 (pGEX-2TK)
T3 sequence (Q06239 whole entry, the tested form may be a part): as the sequence (Q06239 whole entry, one chain of several) above
Method: Phage Display. Phage display was performed using the methods described by A. Sparks et al., Phage Display Of Peptides And Proteins; A Laboratory Manual (1996). Microtiter plate wells were coated with purified VanR and used to select binding phage from a library displaying combinatorial peptides, i.e., 10 random NNK codons followed by a Cys codon, TGC, in the eleventh position (N is A, G, C, or T, and K is G or T). After three rounds of selection, the binding of individual phage clones to the VanR target protein was assessed by phage-ELISA using an anti-M13 phage monoclonal antibody-horseradish peroxidase conjugate (Pharmacia). Ninety-six phage plaques were picked from the third round of selection and tested for their ability to bind to VanR and to BSA, by phage ELISA, to determine levels of specific and background binding, respectively.
For inserting determinants for desired peptide sequences into phage M13 DNA, oligonucleotides encoding the defined peptide sequences were cloned into the XhoI and XbaI sites within gene III of bacteriophage M13. The resulting recombinant phage were then tested for binding to various protein targets, immobilized within microtiter plate wells, by phage ELISA. […]
Sequence Analysis of Combinatorial Peptides. […] The deduced peptide sequences were further analyzed by alignment with the amino acid sequence of VanS using the program MultAlin. […]

[4] = target: T4, VanR-PVanH complex (Enterococcus faecium, UniProt Q06239); assay: Inhibition of the interaction between 32P-labeled PVanH promoter DNA and VanR; type: biochemical; conditions: chemically synthesized peptide in disulfide form; 32P-labeled PVanH DNA segment
T4 construct: GST (N, cleaved yes); made in house; host or cells: E. coli BL21 lambda DE3 (pGEX-2TK)
T4 sequence (Q06239 whole entry, one chain of several): as above
Method: as §1
Gel Shift Analysis of VanR ˜P Binding to PVanH DNA. VanR-PVanH complexes were quantified by gel shift analysis as described by T. Holman et al., 33 Biochem. 4625-4631 (1994). Complexes were formed in a total volume of 15 μL which contained 4 pmol of VanR-P, which was preincubated with the appropriate effector peptides (as aqueous solutions) for 10 minutes at room temperature in 20 mM HEPES (pH 7.2), 5 mM MgCl2, 0.1 mM Na2EDTA, 0.5 mM CaCl2, 10% glycerol, and 0.5 μg of salmon sperm DNA.
as §2, with “PAGE. See generally J. Sambrook et al., Molecular Cloning: A Laboratory Manual, 2nd Ed.” for “PAGE.”

Substance | inhibition of the binding of VanR˜P to DNA segment of cognate promoter PVanH [1] | inhibition of phosphoryl transfer from VanS˜P to PhoB [2] | binding to the regulatory domain of VanR [3] | inhibition of the interaction between VanR and PVanH [4]
SEQ ID NO. 2: modified peptide derived from SEQ ID NO. 1, more closely resembling VanS; the two Cys replaced with Ala and Ser (SLAHDSIIGYLS) | found to inhibit the binding of VanR˜P | inhibited phosphoryl transfer | – | –
SEQ ID NO. 1: dodecamer peptide selected from a combinatorial phage-display library for binding to VanR; contains two Cys residues (SLCHDSVIGWEC) | found to inhibit the binding of VanR˜P | – | localized to the N-terminal, regulatory domain of VanR; also recorded: bound reproducibly to the cloned regulatory domain of VanR preferentially | inhibited the interaction between VanR and PVanH
